# Tests used:
# [1] = target: YC‐StFDL1a (Solanum tuberosum cv. Desiree)
# YC‐St14‐3‐3a = assay: bimolecular fluorescence complementation (BiFC); details: random fields from maximum intensity projections (n ≥ 10); opposing half-leaves, same imaging conditions; read off a plot
# YC‐St14‐3‐3f = assay: bimolecular fluorescence complementation (BiFC); details: random fields from maximum intensity projections (n ≥ 10); opposing half-leaves, same imaging conditions; read off a plot
# YC‐StFD = YC‐StFD (UniProt A0A1E1F9A3); assay: bimolecular fluorescence complementation (BiFC); details: random fields from maximum intensity projections (n ≥ 10); opposing half-leaves, same imaging conditions; read off a plot
# YC‐StFDL1a = YC‐StFDL1a (UniProt A0A1E1F9A2); assay: bimolecular fluorescence complementation (BiFC); details: random fields from maximum intensity projections (n ≥ 10); opposing half-leaves, same imaging conditions; read off a plot
# YC‐StCEN = assay: bimolecular fluorescence complementation (BiFC); details: random fields from maximum intensity projections (n ≥ 10); opposing half-leaves, same imaging conditions; read off a plot
# UniProt A0A1E1F9A2, sequence (A0A1E1F9A2 entry or part of it): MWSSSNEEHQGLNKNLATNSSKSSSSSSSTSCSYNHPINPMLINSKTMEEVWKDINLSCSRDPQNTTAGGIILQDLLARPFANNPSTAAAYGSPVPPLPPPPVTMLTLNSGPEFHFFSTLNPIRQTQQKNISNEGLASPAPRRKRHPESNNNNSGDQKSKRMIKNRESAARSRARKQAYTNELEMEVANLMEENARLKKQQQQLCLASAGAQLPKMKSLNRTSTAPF
# UniProt A0A1E1F9A3, sequence (A0A1E1F9A3 entry or part of it): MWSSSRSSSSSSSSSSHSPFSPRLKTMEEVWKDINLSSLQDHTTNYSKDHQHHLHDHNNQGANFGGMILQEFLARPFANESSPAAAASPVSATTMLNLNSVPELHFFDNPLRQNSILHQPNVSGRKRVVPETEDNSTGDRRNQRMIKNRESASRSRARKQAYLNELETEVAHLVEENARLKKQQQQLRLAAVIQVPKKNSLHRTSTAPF
substance,measurement,setting,value
"StSP6A (tuberigen, FT orthologue of potato), 35S-driven GFP fusion (natural protein)","luciferase activity of the p6A::LUC reporter (2.64 kb StSP6A promoter) in N. benthamiana leaves co-expressing StSP6A and estradiol-induced StFDL1a, against the reporter alone",[1],3 fold
YN‐StCEN R64K; P96L; F103A; R132K,ratio to parent,YC‐St14‐3‐3a,1.3
same,ratio to parent,YC‐St14‐3‐3f,1.2
same,ratio to parent,YC‐StFD,2.7
same,ratio to parent,YC‐StFDL1a,2.8
YN‐StFDL1a (from UniProt A0A1E1F9A2) T224A,ratio to parent,YC‐StCEN,3.4

# — paper PMC7540344
